Experimental data from patent US20240034813A1 (Janssen / Centocor, published 2024).

Legend:
[1] = target: T1, recombinant cMet/HGFR with c-terminal His-tag, Cy5-labeled (UniProt P08581 25-932, limits assumed, Cy5 label (reacted with Cy5 Mono NHS Ester; sites not stated)); test: competitive TR-FRET (Eu-amivantamab/Cy5-c-MET), EC50 ratio vs Reference Material; Ex. 11 drug product, 6 months at 5 C
T1 construct: Commercial protein; also called Cy5-c-MET; Cy5-labeled c-MET antigen; not shown: C-terminal His-tag
From the text: (§1) In this procedure, varying concentrations of unlabeled bispecific EGFR-cMet antibody sample compete with donor fluorophore (Europium (Eu) chelate) labeled bispecific EGFR-cMet antibody for binding to an acceptor fluorophore (Cy5)-labeled c-MET antigen. Excitation of the donor fluorophore results in a transfer of energy to the bound acceptor fluorophore (FRET process). The resultant FRET is detected by emission of light at 665 nm using a microplate reader capable of measuring time-resolved fluorescence. Sample dose response curves are compared to the Reference Material (RM).
(§2) c-MET Binding Materials and Methods. Certified commercial cMet, a recombinant cMet/HGFR with c-terminal His-tag is reacted with certified commercial Cy5 Mono NHS Ester to produce Cy5-labeled c-MET. Validated bispecific EGFR-cMet antibody is reacted with certified commercial Europium (Eu) chelate to produce Eu labeled bispecific EGFR-cMet antibody. […] Fluorescence is then measured by spectrophotometry at 665 nm, plotted against antibody concentration and analyzed by a four-parameter logistic model. The antibody concentration required to obtain half of the maximum fluorescence response (EC50) is determined for RM, assay control and samples. The potencies of assay control and samples are calculated based on the ratio of the sample (or control) and RM EC50 values and reported as a percentage activity relative to the RM.

[2] = target: T2, recombinant human EGFR/ErbB1/HER1 with C-terminal His tag, Cy5-labeled (human, UniProt P00533 25-645, Cy5 label (reacted with Cy5 Mono NHS Ester; sites not stated)); test: competitive TR-FRET (Eu-amivantamab/Cy5-EGFR), EC50 ratio vs Reference Material; Ex. 3 acetate formulation with PS80, T0
T2 construct: Commercial protein; also called Cy5-EGFR; Cy5-labeled EGFR antigen; not shown: C-terminal His tag
From the text: as §1, with “EGFR” for “c-MET”, “RM.” for “Reference Material (RM).”
as §2, with “EGFR” for “c-MET”, “EGFR,” for “cMet,”, “human EGFR/ErbB1/HER1” for “cMet/HGFR”, “C-terminal His tag” for “c-terminal His-tag”, “EGFR.” for “c-MET.”, “Eu-labeled” for “Eu labeled”

[3] = target: T2, recombinant human EGFR/ErbB1/HER1 with …; test: competitive TR-FRET (Eu-amivantamab/Cy5-EGFR), EC50 ratio vs Reference Material; Ex. 2 Formulation 3 (acetate), 3 months at 5 C
From the text: as §1, with “EGFR” for “c-MET”, “RM.” for “Reference Material (RM).”
as §2, with “EGFR” for “c-MET”, “EGFR,” for “cMet,”, “human EGFR/ErbB1/HER1” for “cMet/HGFR”, “C-terminal His tag” for “c-terminal His-tag”, “EGFR.” for “c-MET.”, “Eu-labeled” for “Eu labeled”

[4] = target: T1, recombinant cMet/HGFR with c-terminal …; test: competitive TR-FRET (Eu-amivantamab/Cy5-c-MET), EC50 ratio vs Reference Material; Ex. 12 drug product with rHuPH20, 1 month at 40 C
From the text: as §1, §2

[5] = target: T1, recombinant cMet/HGFR with c-terminal …; test: competitive TR-FRET (Eu-amivantamab/Cy5-c-MET), EC50 ratio vs Reference Material; Ex. 12 drug product with rHuPH20, 3 months at 40 C
From the text: as §1, §2

[6] = target: T2, recombinant human EGFR/ErbB1/HER1 with …; test: competitive TR-FRET (Eu-amivantamab/Cy5-EGFR), EC50 ratio vs Reference Material; Ex. 2 Formulation 2 (50 mM histidine), 3 months at 40 C
From the text: as §1, with “EGFR” for “c-MET”, “RM.” for “Reference Material (RM).”
as §2, with “EGFR” for “c-MET”, “EGFR,” for “cMet,”, “human EGFR/ErbB1/HER1” for “cMet/HGFR”, “C-terminal His tag” for “c-terminal His-tag”, “EGFR.” for “c-MET.”, “Eu-labeled” for “Eu labeled”

[7] = target: T1, recombinant cMet/HGFR with c-terminal …; test: competitive TR-FRET (Eu-amivantamab/Cy5-c-MET), EC50 ratio vs Reference Material; Ex. 2 Formulation 1 (10 mM histidine), 1 month at 40 C
From the text: as §1, §2

[8] = target: T1, recombinant cMet/HGFR with c-terminal …; test: competitive TR-FRET (Eu-amivantamab/Cy5-c-MET), EC50 ratio vs Reference Material; Ex. 12 drug product with rHuPH20, 0 months, 40 C table
From the text: as §1, §2

B1: amivantamab (bispecific antibody, human IgG1, kappa)
heavy 1: not shown
light 1: not shown
heavy 2: not shown
light 2: DIQMTQSPSSVSASVGDRVTITCRASQGISNWLAWFQHKPGKAPKLLIYAASSLLSGVPSRFSGSGSGTDFTLTISSLQPEDFATYYCQQANSFPITFGQGTRLEIKRTVAAPSVFIFPPSDEQLKSGTASVVCLLNNFYPREAKVQWKVDNALQSGNSQESVTEQDSKDSTYSLSSTLTLSKADYEKHKVYACEVTHQGLSSPVTKSFNRGEC
notes: The samples tested were high concentration (160 mg/mL) formulations, fresh or stored or stressed; also called JNJ-61186372; bispecific EGFR-cMet antibody
cMET Binding activity relative to Reference Material (%) [1]: 86% | EGFR Binding % activity relative to RM [2]: 103% | EGFR Binding % activity relative to RM [3]: 87% | cMET Binding activity relative to Reference Material (%) [4]: 81% | cMET Binding activity relative to Reference Material (%) [5]: 68% | EGFR Binding % activity relative to RM [6]: 38% | cMET Binding % activity relative to RM [7]: 96% | cMET Binding activity relative to Reference Material (%) [8]: 91%
